According to the supplement of paper PMC12764529:
± gives the half width of the 95% confidence interval.

Experiment: folding stability dG unfold from trypsin proteolysis; higher = more stable
Protocol: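 Folding stability of de novo designed mini-proteins (<80 aa, no Cys; designed by TrROS, TrMRF, ProteinMPNN and the joint model) was measured by cDNA display proteolysis with trypsin and chymotrypsin. Each protease was used at 11 concentrations in a threefold dilution series plus a no-protease condition. K50 was inferred by Bayesian fitting of sequencing counts, and dG unfold was derived against a sequence-predicted unfolded-state K50 (Tsuboyama et al. method). Sequences shown include variable-length N-terminal GS-type padding (SAGGSAGG...) inside a display construct carrying a PA tag. Rows were kept only if the AF2 dimer inter-PAE was >15, to exclude likely homo-oligomers.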

Row | Sequence | folding stability dG unfold [kcal/mol]
1 | SAGGSAGGSAGMIVIETPLSEYEKLKSPDIEVLEKSEGKVVIEIKVPPEPFYDEEGKPLKSAGGSAGGSAGG [r11_828_JUSTAS] | 0.804 ± 0.034
2 | SAGGSAGGSGMISKTEVERLPDGTVIERKEYPEGGLTTLKIYKVPPDGVPTLVEEKLVPEKLISAGGSAGGS [r12_695_JUSTAS] | -0.612 ± 0.17
3 | SAGGSAGGSAGGMEGFTAVTFTTTTSSNGTRTTTVTTTTPDGTVTTTTTTTPVTPPPNTASAGGSAGGSAGG [r11_998_JUSTAS] | 0.503 ± 0.07
4 | SAGGSAGGDGDFRVSIDPEELPDGQEYKISIQSPDGKPIAEIPIRIPLPPPKPERDDNGKPKPVSAGGSAGG [r6_487_TrROS] | 0.844 ± 0.025
5 | SAGGSAGGSAMTIQINNLPPEKIEEAADDHGIDTQRNEESDSYYIEMPPNDMDEIKEALGWSAGGSAGGSAG [r3_354_TrROS] | 0.725 ± 0.052
6 | SAGGLDSAPPVEVKVEVEEEKTKDPNSDSEVTKYKITVTTTVGGTPIVTEEESIVYKKPDGTIIVEKKSAGG [r19_260_JUSTAS] | -0.403 ± 0.28
7 | SAGGSAGGSAKKTAVIELIDPKDPKPKTITIPFDLKDGKTSLEELKKLVPDYTITSIAVFDDSAGGSAGGSA [r18_494_TrMRF] | -0.182 ± 0.15
8 | SAMLVVLKDPKTGKLILVDPEQLSPEYLERGVEPVREIPPLEVVEVESEEEAEEIRKKYPEKILVTLGPSAG [r14_638_JUSTAS] | 0.68 ± 0.1
9 | SAGGSAGGSSMPVKVTRTPVPSSAPPSTEFLETVTYPDGTVTTYRFRRDDGSVTSVRVSTSPASAGGSAGGS [r12_1049_JUSTAS] | -0.535 ± 0.71
10 | SAGGSPIYVRIEWEPPGNGKEREKEIPIKNVDSPDQLVDEAKEEAMKDGGPIKDIEVYDPDDGRPFPLSAGG [r13_771_TrROS] | 0.598 ± 0.11
11 | SAGPKNAKPIGTVRIRNPNGRKINIMQWPNPIMVHIKPPDGKKREVPIRGAPMEEILDELAEDGWEVEPSAG [r5_613_TrROS] | -0.489 ± 0.63
12 | SAGGSAGGSAGGGAMSPEPLGFKKVETKVEVVGGSPVIVVKLETPEGELELELPPDAKLSAGGSAGGSAGGS [r10_968_JUSTAS] | -0.308 ± 0.12
13 | SAGGSAGGSAMKEYVVASRGYDPATGLYSLTIESSEGKKVKNVTFDDPSNPEKAINEAIAKESAGGSAGGSA [r18_479_JUSTAS] | -0.713 ± 0.34
14 | SAGGSAGGSAGPEIVLEGKPVELEVVEVGDKPVLIARFPDHYVVIDPEPDVIRLFSSEELSAGGSAGGSAGG [r11_9_TrMRF] | -0.0154 ± 0.018
15 | SAGGKIREVEIEEFDPDNGWVMITFNMPPEDLDKMKPIKLPGIKDVHWDPGNDHISASMPLEEAKEASAGGS [r16_614_TrROS] | -0.121 ± 0.17
16 | SAGGSAGGSAGGMPVTVEVKEEELPGGEKVITVTVTYPDPVVETLEVKKLPPVDPNNKPSAGGSAGGSAGGS [r10_684_JUSTAS] | 0.294 ± 0.1
17 | SAGGSAGGKKKFKVEKITEIKVEKLENGEEVIVKIRLKNGEEIEIPAKDIKLEDLPEGAEIEVISAGGSAGG [r6_609_TrROS_Hall] | 0.123 ± 0.34
18 | SAGMTVEEVAAEIIASHPPSSTSVTLEVDVGPKPVRVTVEILPDPETGRPVPRVTVTDPNKNVTTEYVVSAG [r5_236_JUSTAS] | -0.173 ± 0.052
19 | SAGGSAGGSAGDEKVPFFVRIIDPKNGKPVREFPVEVDPGKIKIPKELAENMPPDNVEIYSAGGSAGGSAGG [r11_725_TrROS] | -0.824 ± 0.4
20 | SAMDIEIEPTEGMMEIKLPGKEIHIMQHPNYMHIQIKYPEGEPVSIPIDPNSPPEDMIDNLLKLLEKAGSAG [r14_618_TrROS] | 0.425 ± 0.042
21 | SAGGSAGGSASKYVKVTVRLTPPDGTTRTVEITDPNKTVEEIIASLPSDEPVEVTEVEELPPSAGGSAGGSA [r18_32_JUSTAS] | 0.197 ± 0.18
22 | SAGPKVVKIEFLEDNTAKITVEVGSKPVEVEVPVGSVFLIPGGEKIEVIEPGKAKVSPLPEVDVDPEKSAGG [r19_17_TrMRF] | -0.848 ± 0.33
23 | SAGGSAGGSAPIVRLEFGPVIPLPDMSPDELKEKTAELVPEEYREKIKIVSVLDPDNPKEISAGGSAGGSAG [r3_340_TrMRF] | -0.269 ± 0.12
24 | SAGGSAGGSALSPDDVEPIDEEPFHNPGGNPMNIGIWKNPDDGKPFIRNPGNGNPFPADDLSAGGSAGGSAG [r3_181_TrROS] | -0.498 ± 0.12

Row | Sequence | folding stability dG unfold [kcal/mol]
25 | SAGGSAGGSAPKPKIEPVNNTITIDIPPKENVQIFFPNGKQEEFPVEPGKEIKIPPGMYLYPSAGGSAGGSA [r18_452_TrROS] | -0.356 ± 0.055
26 | SAGGSAMKTLTATFSDGRSVTVEPENRTVTVSTPESSISTIPVPPDVPEVTITTPSGVTITLTVDTSAGGSA [r2_385_JUSTAS] | 0.287 ± 0.083
27 | SAGGSAGGSAGVIEVPIEELENLPDDVKVVPTENTAVIYNEKNPIVVPKNEPVLIAPSDKSAGGSAGGSAGG [r17_91_TrMRF] | 0.937 ± 0.051
28 | SAGGMKTTFTITHPDAEKAREALEKAVPSDLDVEPEFTPTPDGYTTTVTVPAEHPEVAAAALAAALASAGGS [r16_43_JUSTAS] | 0.0621 ± 0.09
29 | SAGGSAGGSAGGKIKVVFELPDAPLFLVAEADSPEELLERAVKLEEELGVPLKVVKVEGSAGGSAGGSAGGS [r10_1087_TrMRF] | -0.509 ± 0.23
30 | SPKIEIEPMPPNMFIAKIRDPEKNKKVSIHIPPNMPPGQPMQVYDPDKPKWVPFNEIEELLKKGLPVEIYSA [r9_250_TrROS] | 0.0989 ± 0.23
31 | SAGGSAGGSKKVVTYESVTLTVLVERTLPDPEGNPVTTTRVVEEPVRVTKVDFDTKVETYVVGSAGGSAGGS [r20_58_JUSTAS] | -0.0343 ± 0.14
32 | SAGGSAKLEINIIIPGMPPERAKRKARNIAAELRKQGLPKENIKDVDIKVIVMPWRRDPDNKWKPMSAGGSA [r15_684_TrROS] | 0.506 ± 0.079
33 | SAGGMYTLSEKTLPDGSKLLTVTRPDKPEEVFLPKEAENLPPETPVTTRGAGGEEVRPVAEILPPALLSAGG [r13_97_JUSTAS] | 0.257 ± 0.11
34 | SAGGSAGGSAGPKPIRIKVKWRNEKDGEKRKVTIPIPPGMPLEELIKNADPNQVRDVEIVSAGGSAGGSAGG [r11_386_TrROS] | -0.276 ± 0.1
35 | SAGGSAGGSAGGPSAVSSSSSSRTTTVPGTGTPLRVSSTTTTLDAATGASTTTTTTSPGASAGGSAGGSAGG [r11_1029_JUSTAS] | -0.553 ± 0.13
36 | SAGPPNMEPVETHTFPFPGKKIKIKVYRNPDGHVKIKLEDPGKKIEQSAPVPPGEPVEIPIRLPNGKPISAG [r5_878_TrROS] | -0.904 ± 0.52
37 | SAGGSAEPPVKEIAEKLIKKSKKPIIATVVEKKKDGYLVTKVKYIPNTGKPIIKVKKITPEELKKKSAGGSA [r15_156_TrMRF] | 0.159 ± 0.097
38 | SAGGSAGGKIEIVIEGLSEEEVEALAKELRDAGLEIEVTVVPPPAPPPLTAEELAKNPEALKALSAGGSAGG [r6_804_TrROS_Hall] | 0.714 ± 0.053
39 | SAGMTITKTEEFPKGPGSVTRTTVTLPNGKVVVEETITLEDPSVTKTVTKTIEPADGTVLETTTTTVPASAG [r5_108_JUSTAS] | 0.302 ± 0.16
40 | SMEIKVTVEEKDGKKYVTIEIKLSEEELKGKELTEEEIEELARELAKKLGIKEVKIERLPNGTYRIVIELSA [r9_883_TrROS_Hall] | 4.47 ± 0.39
41 | SAGGSAGGSAGSSLPPDARYTTKVTVKTPFSKTLSLSEYQKLPPSEIKGIEIEKEVVPVESAGGSAGGSAGG [r11_899_JUSTAS] | -0.198 ± 0.44
42 | SAGGETEVVETNASPAELAERVAEALAAGREVTVTLPDGTVLDAGPDLADLPADTPVRLEFTPAVAASAGGS [r16_31_JUSTAS] | 0.841 ± 0.032
43 | SAGGSGLRVGDVVEAEGVVVPDPETRLRRAVFRFPDFVVVEVVEVPEDVAPDEEIPFPVRIDAIVPSAGGSA [r2_113_TrMRF] | -0.512 ± 0.19
44 | SAGGSAPVTPDELVERVMQYIQGQNGMPPGDTPEQMRDNGMPIKIPITVEDPDGEPIAEVEIEFPMSAGGSA [r15_391_TrROS] | 0.637 ± 0.054
45 | SANFDKAPPIEVKTEVSSFPADEEKIDPKTGKKSKRKRTITPVTVTKDGKTYTSTTTTYPDGSTETTTSSAG [r14_225_JUSTAS] | -0.0456 ± 0.2
46 | SAGGSAGGSAGGGLYNVVVTGKGEERVLPAKSPDDVKEALEEAGLEIKSIHPETGIVEAGSAGGSAGGSAGG [r7_726_TrMRF] | -0.471 ± 0.18
47 | SAGGFKITEVEKDEKKGYPWVSIRIPPKSTLKKLKNMPGPVRIHNPEPGQWIHMPVDDPEEFLDKLLKSAGG [r13_604_TrROS] | 0.274 ± 0.18
